Assays:
[1] = tested on: PC-3 xenografts; assay: PC-3 human prostate cancer xenograft model; assay type: in vivo, NOD/SCID mice
Experimental: Procedures involving animals and their care were conducted according to the guidelines of the Academia Sinica Institutional Animal Care and Utilization Committee in compliance with national and international laws and policies. Non-obese diabetic-severe combined immunodeficiency (NOD/SCID) mice were purchased from the National Laboratory Animal Center (Taiwan). The human prostate cancer xenograft tumor model was developed by subcutaneously injecting 2×10^6 PC-3 cells into the dorsal flank of a six-week old male mouse. Animals were monitored daily for general health, and body weights were measured twice weekly. Tumor size was measured with slide calipers and calculated as length×width^2×0.52. […] An antibody dose of 20 mg/kg was injected twice a week for four weeks. For combination therapy, docetaxel (ScinoPharm Taiwan) was also intravenously administered at a dose of 5 mg/kg once a week for three weeks. At the end of the experiment, tumor tissue and visceral organs were removed and fixed for histological analysis.
For tumor blood vessel studies, samples were fixed in OCT. Frozen blocks were cut into 50 μm sections, and frozen tumor tissue sections were fixed with 1% paraformaldehyde, permeabilized with 0.1% TRITON™-X 100, blocked with normal horse serum (Vector), and then incubated for 1 hour at room temperature (RT) with a 1:100 dilution of the primary antibody (rat anti-mouse CD31 (PECAM-1); BD Bioscience). Subsequently, the tissue sections were incubated with Alexa 549-conjugated goat anti-rat antibody (Invitrogen) at room temperature for 1 hour. Nuclei were stained with DAPI, and sections were then mounted with fluorescent mounting solution. Immunofluorescent images were acquired using a Zeiss Axiovert 200M microscope. Positive areas of CD31 endothelial cells were quantified by pixel area counting and normalized with DAPI staining using ImageJ software under low power magnification.
The frozen tumor tissue sections were fixed with 1% paratbrmaldehyde and permeabilized with 0.1% TRITON™-X 100, before being incubated with terminal deoxynucleotidyltransferase-mediated dUTP nick end labeling reaction mixture (Roche Diagnostics) at 37° C. for 1 hour. After washing three times with PBS, the slides were incubated with FITC-anti-DIG antibody (1:2000) and DAPI (1:500). Slides were mounted with mounting solution and visualized under a fluorescent microscope. Slides were independently examined by three individuals. Areas with TUNEL-positive cells were quantified by pixel area counting, and normalized to DAPI staining using ImageJ software.

[2] = biological target: T1, VEGFR2-Fc (Homo sapiens, UniProt P35968); assay: Screening of anti-VEGFR2 phage clones by ELISA; assay type: binding; settings: 1×10^9 cfu phage titer
T1 construct: purchased R&D Systems
T1 sequence (P35968 with tags, fused parts or gaps limits assumed): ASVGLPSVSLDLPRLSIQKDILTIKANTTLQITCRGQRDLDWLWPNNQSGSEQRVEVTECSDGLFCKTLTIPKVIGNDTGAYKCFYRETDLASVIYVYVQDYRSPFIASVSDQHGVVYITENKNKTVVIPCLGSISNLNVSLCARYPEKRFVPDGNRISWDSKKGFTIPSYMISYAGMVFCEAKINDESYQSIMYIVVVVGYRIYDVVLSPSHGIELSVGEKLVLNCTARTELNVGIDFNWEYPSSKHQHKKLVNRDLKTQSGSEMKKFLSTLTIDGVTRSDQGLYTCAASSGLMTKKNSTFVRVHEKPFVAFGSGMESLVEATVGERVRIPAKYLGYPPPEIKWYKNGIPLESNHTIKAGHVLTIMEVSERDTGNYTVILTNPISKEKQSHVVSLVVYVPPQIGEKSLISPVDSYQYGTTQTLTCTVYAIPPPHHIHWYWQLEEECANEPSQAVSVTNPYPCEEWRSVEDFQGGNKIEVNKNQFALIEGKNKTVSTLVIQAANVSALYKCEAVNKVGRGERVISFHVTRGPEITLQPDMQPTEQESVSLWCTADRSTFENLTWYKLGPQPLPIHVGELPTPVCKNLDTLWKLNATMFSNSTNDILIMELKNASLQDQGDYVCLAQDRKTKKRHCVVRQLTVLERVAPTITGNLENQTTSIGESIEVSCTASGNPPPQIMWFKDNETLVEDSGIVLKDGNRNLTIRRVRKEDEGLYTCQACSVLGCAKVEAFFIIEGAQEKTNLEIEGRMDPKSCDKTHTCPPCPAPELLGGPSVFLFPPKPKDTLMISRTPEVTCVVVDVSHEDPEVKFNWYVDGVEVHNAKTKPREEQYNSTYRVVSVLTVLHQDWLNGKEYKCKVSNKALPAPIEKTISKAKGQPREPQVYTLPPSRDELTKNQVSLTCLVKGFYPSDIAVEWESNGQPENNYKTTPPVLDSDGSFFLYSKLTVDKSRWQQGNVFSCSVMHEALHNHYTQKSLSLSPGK
Experimental: (§1) The selected phages were further examined by ELISA screening. The 96-well plates were coated with 1 μg/ml of VEGFR2-Fc, Met-Fc (R&D), or BSA (Sigma) protein in 0.1 M sodium bicarbonate overnight at 4° C. After blocking with 1% BSA in PBS (w/v) for 2 hr at room temperature, 70-randomly selected phage clones were added to the plates at a 1:2 dilution in 1% BSA, and incubated for 1 hr at room temperature. Following washes with PBST, the plates were incubated with a 1:2000 dilution of horseradish peroxidase (HRP)-conjugated mouse anti-M13 phage antibody (GE) for 1 hr. After washing with PBST, the colorimetric reaction was developed with the peroxidase substrate ortho-phenylenediamine (OPD; Sigma) plus H2O2 for 15 min, and then terminated by the addition of 3 N HCl. The absorbance at 490 nm was determined using a microplate reader (SpectraMax, Molecular Devices). Plasmid DNA of positive clones were isolated and sequenced using the pCANTAB5 sequencing primer set.

[3] = tested on: Met-Fc; assay: Phage clone ELISA on control protein; assay type: binding
Experimental: as §1

[4] = biological target: T2, VEGFR2 (Homo sapiens, UniProt P35968); assay: Competitive VEGF binding assay (ELISA): VEGF-A binding to immobilized VEGFR2; settings: scFv; for IC50: 3 nM human VEGF-A, immobilized VEGFR2-Fc, read-out: half-maximal inhibitory concentration (IC50) of the interaction of VEGF-A with VEGFR2; for competitive ability against VEGF-A binding to VEGFR2: plate-based competition binding assay
T2 construct: purchased R&D Systems
T2 sequence (P35968 with tags, fused parts or gaps limits assumed): as above
Experimental: Various concentrations of anti-VEGFR2 scFvs were mixed with 3 nM human VEGF-A (Peprotech), and added to 96-well plates coated with 1 μg/ml of VEGFR2-Fc and pre-blocked in 1% BSA. After incubation for 1 hr at RT and washes with PBST, the bound VEGF molecules were detected using anti-VEGF mAb (GeneTex) and HRP-labeled goat anti-mouse IgG. The reaction was developed with a mixture of OPD and H2O2, and subsequently terminated with 3 N HCl. The absorbance was determined using a microplate reader at 490 nm.
To determine whether the anti-VEGFR2 scFvs can block VEGF-A binding to VEGFR2, we performed a plate-based competition binding assay in which increasing concentrations of scFvs competed with VEGF-A for binding to the immobilized VEGFR2.
We analyzed the affinity of both human antibodies to VEGFR2 using a BIACORE T100™. […] We performed solid-phase competitive assays to quantitatively evaluate the disruption of VEGF-A/VEGFR2 binding by individual antibodies.

[5] = tested on: VEGFR2 signaling pathway; assay: Western blot of VEGF-A-induced phosphorylation in HUVECs; assay type: cell-based, human; settings: scFv
Source text: Western blots were pertbrmed using standard protocols, as previously described. The primary antibodies were purchased from Cell Signaling Technology and used at a 1,000-fold dilution for protein detection; the antibodies used are as follows: anti-VEGFR2 (clone 55B11), anti-phospho-VEGFR2 (Tyr1175; clone 19A10), anti-FAK, anti-phospho-FAK (Tyr397; cloneD20B1), anti-p42/44 MAPK, anti-phospho-p42/44 MAPK (Thr202/Tyr204; cloneD13.14.4E), anti-Akt, and anti-phospho-Akt (Ser473).

[6] = biological target: murine VEGFR2 protein (Mus musculus, UniProt P35918, DEL223-227); assay: Cross-reactivity with murine VEGFR2; assay type: binding
murine VEGFR2 protein, sequence (P35918 with tags, fused parts or gaps DEL223-227): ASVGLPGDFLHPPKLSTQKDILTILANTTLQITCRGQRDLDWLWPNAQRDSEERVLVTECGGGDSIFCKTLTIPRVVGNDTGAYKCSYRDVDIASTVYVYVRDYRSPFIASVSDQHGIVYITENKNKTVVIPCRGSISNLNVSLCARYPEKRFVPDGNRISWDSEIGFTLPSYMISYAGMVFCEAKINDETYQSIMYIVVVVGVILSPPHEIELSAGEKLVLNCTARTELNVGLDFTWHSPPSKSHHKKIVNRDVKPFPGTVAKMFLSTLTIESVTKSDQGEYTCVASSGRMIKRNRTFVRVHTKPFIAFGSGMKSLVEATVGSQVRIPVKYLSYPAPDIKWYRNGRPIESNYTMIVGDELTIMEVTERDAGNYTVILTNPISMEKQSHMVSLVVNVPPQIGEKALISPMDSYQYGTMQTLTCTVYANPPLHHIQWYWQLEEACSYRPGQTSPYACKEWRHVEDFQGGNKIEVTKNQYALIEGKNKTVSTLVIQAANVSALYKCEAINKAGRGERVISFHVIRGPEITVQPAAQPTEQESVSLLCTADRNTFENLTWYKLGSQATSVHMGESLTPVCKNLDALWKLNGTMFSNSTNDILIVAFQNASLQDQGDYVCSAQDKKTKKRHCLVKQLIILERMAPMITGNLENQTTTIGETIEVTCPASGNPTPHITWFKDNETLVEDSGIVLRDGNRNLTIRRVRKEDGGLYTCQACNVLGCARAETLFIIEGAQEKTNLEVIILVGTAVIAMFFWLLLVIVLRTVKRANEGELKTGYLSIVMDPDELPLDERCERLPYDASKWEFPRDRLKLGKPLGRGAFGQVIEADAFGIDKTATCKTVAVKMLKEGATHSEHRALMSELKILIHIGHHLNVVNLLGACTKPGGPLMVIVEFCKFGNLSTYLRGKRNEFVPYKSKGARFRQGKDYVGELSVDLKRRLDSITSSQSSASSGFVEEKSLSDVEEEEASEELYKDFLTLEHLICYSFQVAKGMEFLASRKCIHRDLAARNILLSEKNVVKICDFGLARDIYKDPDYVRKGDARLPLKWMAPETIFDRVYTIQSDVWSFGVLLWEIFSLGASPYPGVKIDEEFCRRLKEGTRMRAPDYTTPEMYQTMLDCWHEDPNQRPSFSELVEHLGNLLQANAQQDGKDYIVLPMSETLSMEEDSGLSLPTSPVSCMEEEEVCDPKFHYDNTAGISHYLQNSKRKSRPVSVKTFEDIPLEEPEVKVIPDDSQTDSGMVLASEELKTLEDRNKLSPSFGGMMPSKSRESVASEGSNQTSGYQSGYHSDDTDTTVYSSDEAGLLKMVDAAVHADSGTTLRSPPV

## CC(=O)O[C@@]12CO[C@@H]1C[C@H](O)[C@@]1(C)C(=O)[C@H](O)C3=C(C)[C@@H](OC(=O)[C@H](O)[C@@H](NC(=O)OC(C)(C)C)c4ccccc4)C[C@@](O)([C@@H](OC(=O)c4ccccc4)[C@H]21)C3(C)C [docetaxel, reference compound]
[1]; by day 38, antibody 20 mg/kg i.v. twice a week, docetaxel 5 mg/kg i.v. once a week
  tumor growth reduction: 70%
[1]; treatment period
  loss of body weight: about 20%

B1: R2PC8: phage-displayed human scFv clone binding VEGFR2; VH CDR1-3 SEQ ID NO: 1-3, VL CDR1/CDR3 SEQ ID NO: 4, 5 (antibody, V domains shown)
VH: QVQLVQSGGGLVKPGGSLRLSCAASGFTFSSYSMSWVRQAPGKGLEWVSSISSSSSYIYYADSVKGRFTISRDNAKNSLYLQMNSLRAEDTAVYYCARSTDAFDIWGQGTMVTVSS
VL: DIVMTQSPSSLSASVGDRVTITCRASQRISNYLNWYQHKSGEDPKLLIYAASSLQSGVPSRFSGSGSGTDFTLTISSLQPEDFATYYCQQYDRYPPTFGQGTKLEIK
[2]
  binding of phage clones to VEGFR2-Fc: bind highly
[3]
  binding of phage clones to c-Met-Fc control protein: not

B2: R2S8: soluble anti-VEGFR2 scFv protein generated from phage clone R2PC8 (antibody, V domains shown)
VH: B1 VH
VL: B1 VL
[4]
  IC50: 7.03 nM
[5]
  tyrosine phosphorylation of VEGFR2 by VEGF-A: inhibited
[6]
  cross-reaction / binding to murine VEGFR2: did not cross-react

B3: R2S12: soluble anti-VEGFR2 scFv protein from phage clone R2PC12; VH SEQ ID NO: 76, VL SEQ ID NO: 77 (antibody, V domains shown)
VH: QVNLRESGGGLVKPGGSLRLSCAASGFTFGSYTMNWVRQAPGKGLEWVASITSGSSYIFYTDSVKGRFTISRDNSRSSLFLQMNSLRAEDTAIYYCARGSASAFDIWGQGTMVTVSS
VL: DIQMTQSPSSLSASVGDRVTITCKASDDIINYLNWYQQKPGEAPKLLIYDASILETGVPSRFSGSGSGTDFTFTISSLQPEDIATYYCQQYDILPLTFGGGTKLEIK
modifications: scFv linker; VH region of R2S12 or R2S12-AF; VL region of R2S12
[4]
  IC50: 3.26 nM
[5]
  tyrosine phosphorylation of VEGFR2 by VEGF-A: strongest inhibition activity
[6]
  cross-reaction / binding to murine VEGFR2: did not cross-react

B4: R2PC29: phage-displayed human scFv clone binding VEGFR2; VH CDR1-3 SEQ ID NO: 16-18, VL CDR1/CDR3 SEQ ID NO: 19, 20 (antibody, V domains shown)
VH: QVQLQQSGAEMKKSGSSVKVSCKASGGNFISKGISWVRQAPGQGLEWMGGIIPLFGTGNYAQKFQGRVTITADESTTTVYLQLTSLTPEDTAMYFCATADVDYSDSLEAFDMWGQGTMVTVSS
VL: DIVMTQSPSSLSASVGDRVTITCRASQSINNYLNWYQQKPGKAPNLLIYGASSLQSGVPSRFRGSGSGTDFTLTISSLQPEDFATYYCQQSYSTPLFGQGTKLEIK
[2]
  binding of phage clones to VEGFR2-Fc: bind highly
[3]
  binding of phage clones to c-Met-Fc control protein: not

B5: R2S29: soluble anti-VEGFR2 scFv protein generated from phage clone R2PC29 (antibody, V domains shown)
VH: B4 VH
VL: B4 VL
[4]
  competitive ability against VEGF-A binding to VEGFR2: comparatively weak competitive ability

B6: R2PC28: phage-displayed human scFv clone binding VEGFR2; VH CDR1-3 SEQ ID NO: 11-13, VL CDR1/CDR3 SEQ ID NO: 14, 15 (antibody, V domains shown)
VH: EVQLVESGGALVQPGGSLRLSCVGSEFTFSHYNLHWVRQAPGKGLEWLAVISDDGRNKYYGDSVKGRFTISRDNSKNTLYLQMNGLRAEDTAVYYCARVPTVWRGGVYDIWGQGTMVTVSS
VL: EIVLTQSPATLSLSPGERATLSCRASQSVGSYLAWYQQRPGQPPRLLIYDASNRATGVAARFSGSGSGTDFTLTIDSLEAEDAATYYCHQSSSLPRTFGQGTKLEIK
[2]
  binding of phage clones to VEGFR2-Fc: bind highly
[3]
  binding of phage clones to c-Met-Fc control protein: not

B7: R2S28: soluble anti-VEGFR2 scFv protein generated from phage clone R2PC28 (antibody, V domains shown)
VH: B6 VH
VL: B6 VL
[4]
  competitive ability against VEGF-A binding to VEGFR2: comparatively weak competitive ability

B8: R2PC45: phage-displayed human scFv clone binding VEGFR2; VH CDR1-3 SEQ ID NO: 21-23, VL CDR1/CDR3 SEQ ID NO: 24, 25 (antibody, V domains shown)
VH: QVNLRESGGGVVQPGRSLRLSCAASGFTFSSYAMHWVRQAPGKGLEWVAVISYDGSNKYYADSVKGRFTISRDNSKNTLYLQMNSLRAEDTAVYYCAREQDYGSSSGDAFDIWGQGTMVTVSS
VL: DIQMTQSPSSLSASVGDRVTITCRASQRISSYLNWYQQKPGKAPKLLIYDASNLQSGVPSRFSGSGSGTDFTLTINGLQPDDFAIYFCHQSYSAPPTFGQGTKVEIK
[2]
  binding of phage clones to VEGFR2-Fc: bind highly
[3]
  binding of phage clones to c-Met-Fc control protein: not

Source: US10196447B2, “Anti-vascular endothelial growth factor receptor 2 (VEGFR2) antibody and methods of use thereof for detecting VEGFR2 and for inhibiting tumor growth, tumor angiogenesis and/or inducing cancer cell cytotoxicity” (Academia Sinica, priority 2015, dated 2019)
